Reference: article PMC13046434 (European journal of pharmacology, 2025)
Read-outs that look alike come from different tables or passages of the source.

Tests used:
[1] = biological target: T1, N198A hNET (Homo sapiens, UniProt P23975, N198A); test: kinetic analysis of [3H]DA uptake, N198A hNET; assay type: cell-based; set-up: expressed in transfected cells; host or cells: CHO cells, transient transfection with Lipofectamine 2000
Experimental: (§1) The kinetic parameters of [^3H]DA uptake, maximal velocity (Vmax) and Michalis-Menton constant (Km), were determined in CHO cells transiently transfected with WT hNET and its mutants seeded in 24 well plates as described above. […] After the 10-min incubation period, cells were incubated for 8 min at room temperature with a series of one of six concentrations of mixed [^3H]DA (0.001–1.0 μM, final concentration). The reaction was terminated by the removal of solution from the wells followed by three rapid washes of ice-cold 1 x KRH. Cells were lysed with 500 μL of 1 % SDS for 1 h and radioactivity measured as described above. Specific hNET-mediated DA uptake was calculated by subtracting the nonspecific uptake (in the presence of desipramine and nomifensine) from the total uptake.
(§2) Results are presented as mean ± SEM. The number of n represents the number of independent experiments from each experiment group. Kinetic parameters (Vmax and Km) were determined from saturation curves by nonlinear regression analysis using a one-site model with variable slope. IC50 values for the substrate and inhibitors for [^3H]DA uptake were determined from nonlinear regression analysis inhibition curves using a one-site model with variable slope. GraphPad Prism (version 10.1.2.) was used to calculate the kinetic parameters and IC50 values for substrate and inhibitors inhibiting [^3H]DA uptake or [^3H] WIN35428. For any experiment involving comparisons between unpaired samples, unpaired Student’s t tests were used to determine any difference between parameters between WT hNET and its mutants. Log-transformed IC50 values were used for statistical comparisons. One-way ANOVA comparisons with repeat measurements were used for analyzing the [^3H]DA and [^3H]MPP^+ efflux data. Significant differences between samples were analyzed with independent ANOVAs followed by post-hoc tests, which is indicated in the Results Section of the efflux experiments. All statistical analyses were performed using the IBM SPSS Statistics version 29 and returned values of at least p < 0.05 were considered significant.

[2] = biological target: T2, E223A hNET (Homo sapiens, UniProt P23975, E223A); test: kinetic analysis of [3H]DA uptake, E223A hNET; assay type: cell-based; set-up: expressed in transfected cells; host or cells: CHO cells, transient transfection with Lipofectamine 2000
Experimental: as §1, §2

[3] = biological target: T3, WT hNET (Homo sapiens, UniProt P23975); test: kinetic analysis of [3H]DA uptake, WT hNET; assay type: cell-based; set-up: expressed in transfected cells; host or cells: CHO cells, transient transfection with Lipofectamine 2000
Experimental: as §1
Results are presented as mean ± SEM. […] Kinetic parameters (Vmax and Km) were determined from saturation curves by nonlinear regression analysis using a one-site model with variable slope. IC50 values for the substrate and inhibitors for [^3H]DA uptake were determined from nonlinear regression analysis inhibition curves using a one-site model with variable slope. […] Significant differences between samples were analyzed with independent ANOVAs followed by post-hoc tests, which is indicated in the Results Section of the efflux experiments. […]

[4] = biological target: T1, N198A hNET; test: basal [3H]DA and [3H]MPP+ efflux, N198A hNET; assay type: cell-based; set-up: expressed in transfected cells; host or cells: CHO cells, transient transfection with Lipofectamine 2000; conditions: across 90 min, preloaded 50 nM, 20 min
Experimental: (§3) To determine whether N198A or E223A hNET alters transporter conformational transients, [^3H]DA or [^3H]MPP^+ efflux was performed based on our previous studies ([Midde et al., 2015]; [Quizon et al., 2021]). Intact CHO cells in precoated 24-well plates transfected with WT hNET or its mutants were preloaded with [^3H]DA (50 nM final concentration) for 20 min or [^3H]MPP^+ (5 nM final concentration) for 30 min at room temperature. After the preloading period, cells were washed twice with 1 x KRH buffer before collecting fractional release samples. Total uptake of [^3H]DA or [^3H]MPP^+ at the zero time point was estimated from four wells per genotype that were lysed immediately with 1 % SDS after preloading period. Nonspecific uptake of [^3H]DA or [^3H]MPP^+ at zero time point was estimated from four wells per genotype that were incubated with the hNET inhibitors desipramine and nomifensine (100 μM and 10 μM final concentration, respectively) and lysed immediately with 1 % SDS after the preloading period. To collect fractional release, 500 μL of KRH buffer was added into a set of four wells and transferred to scintillation vials after 0 min as the initial fractional efflux. Fresh 500 μL of 1 x KRH buffer was added into the wells and incubated for 10 min then transferred to scintillation vials. Fractional efflux was collected every 10 min for 90 min ([^3H]DA) or 110 min ([^3H]MPP^+). […]

[5] = biological target: T2, E223A hNET; test: basal [3H]DA and [3H]MPP+ efflux, E223A hNET; assay type: cell-based; set-up: expressed in transfected cells; host or cells: CHO cells, transient transfection with Lipofectamine 2000; conditions: across 90 min, preloaded 50 nM, 20 min
Experimental: as §3

[6] = biological target: T1, N198A hNET; assay type: binding; set-up: expressed in transfected cells; host or cells: CHO cells, transient transfection with Lipofectamine 2000
[7] = biological target: T3, WT hNET; assay type: binding; set-up: expressed in transfected cells; host or cells: CHO cells, transient transfection with Lipofectamine 2000
[8] = biological target: T2, E223A hNET; assay type: binding; set-up: expressed in transfected cells; host or cells: CHO cells, transient transfection with Lipofectamine 2000
[9] = biological target: T2, E223A hNET
[10] = biological target: T3, WT hNET
[11] = biological target: T3, WT hNET; test: Ki of rTat1-86 inhibiting [3H]DA uptake in WT hNET cell suspensions; assay type: cell-based; set-up: expressed in transfected cells; host or cells: CHO cells, transient transfection with Lipofectamine 2000
Experimental: To determine the inhibitor constant (Ki) of rTat1-86 inhibiting DA uptake in WT hNET, cells in 10 cm plates were cultured and transfected with WT hNET as described above. All reagents were made in 1 x KRH containing 0.1 % Protease Inhibitor Cocktail 1 (P2850, Sigma-Aldrich) and 0.1 % Protease Inhibitor Cocktail (P8340, Sigma-Aldrich). Cells were detached and harvested as described above. The cell suspensions were then incubated with a range of rTat1-86 (0.25–140 nM, final concentrations) for 20 min at room temperature. […] The reaction was then terminated as described above.

[12] = biological target: T1, N198A hNET
[13] = per 10^6 cells, DA 0.001-1.0 μM

T1 sequence (P23975 whole entry N198A): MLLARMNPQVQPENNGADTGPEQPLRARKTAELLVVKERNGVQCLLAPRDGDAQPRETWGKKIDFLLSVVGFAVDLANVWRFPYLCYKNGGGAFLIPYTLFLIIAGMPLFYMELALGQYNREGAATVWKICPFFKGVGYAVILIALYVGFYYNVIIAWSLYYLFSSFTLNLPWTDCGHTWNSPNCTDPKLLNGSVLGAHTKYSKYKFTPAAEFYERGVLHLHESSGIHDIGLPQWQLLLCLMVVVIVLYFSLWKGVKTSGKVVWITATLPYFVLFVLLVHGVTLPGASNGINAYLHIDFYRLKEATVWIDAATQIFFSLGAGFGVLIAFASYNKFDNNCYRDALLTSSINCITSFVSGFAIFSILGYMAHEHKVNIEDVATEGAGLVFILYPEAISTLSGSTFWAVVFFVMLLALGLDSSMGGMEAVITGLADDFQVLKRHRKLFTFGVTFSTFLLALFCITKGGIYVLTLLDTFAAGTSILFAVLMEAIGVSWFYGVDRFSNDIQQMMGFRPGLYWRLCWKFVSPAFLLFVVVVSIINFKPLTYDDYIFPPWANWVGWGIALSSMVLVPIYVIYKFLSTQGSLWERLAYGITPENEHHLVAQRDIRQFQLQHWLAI
T3 sequence (P23975 whole entry): as the sequence (P23975 whole entry N198A) above, with A198N counted along it
T2 sequence (P23975 whole entry E223A): as the sequence (P23975 whole entry N198A) above, with A198N, E223A counted along it

NCCc1ccc(O)c(O)c1 [[^3H]DA, 3,4-ethyl-2[N-P^3PH]dihydroxyphenylethylamine]
Km [1]: 0.084 ± 0.02 µM | Km [2]: 0.066 ± 0.011 µM | Km [3]: 0.057 ± 0.008 µM

[3H]c1c([3H])c(CCN)c([3H])c(O)c1O [[^3H]DA, 3,4-ethyl-2[N-P^3PH]dihydroxyphenylethylamine]
reduction in Vmax of [3H]DA uptake compared to WT hNET [1]: 82.6% | Vmax of [3H]DA uptake [1, 13]: 91.4 ± 16.4 fmol/min/10^6 | overall [3H]DA efflux compared to WT hNET [4]: significantly reduced | reduction in Vmax of [3H]DA uptake compared to WT hNET [2]: 71.2% | Vmax of [3H]DA uptake [2, 13]: 151.1 ± 14.5 fmol/min/10^6 | Vmax of [3H]DA uptake [3, 13]: 525.4 ± 89.8 fmol/min/10^6 | overall [3H]DA efflux compared to WT hNET [5]: significantly reduced

COC(=O)[C@H]1[C@@H](c2ccc(F)cc2)C[C@@H]2CC[C@H]1N2C [[^3H]WIN35428]
specific [3H]WIN35428 binding [6]: 11361 ± 652 DPM | specific [3H]WIN35428 binding normalized as a percentage of WT hNET [6]: 80.67 ± 4.6% | specific [3H]WIN35428 binding [7]: 14083 ± 1198 DPM | specific [3H]WIN35428 binding normalized as a percentage of WT hNET [7]: 100 ± 8.5% | specific [3H]WIN35428 binding [8]: 11806 ± 567 DPM | specific [3H]WIN35428 binding normalized as a percentage of WT hNET [8]: 83.83 ± 4.0

rTat1-86: recombinant HIV-1 transactivator of transcription (rTat1-86), purchased from ImmunoDX
Tat-induced reduction of [3H]DA uptake compared to its control ([9]; 8.75 nM rTat1-86): attenuated | specific [3H]DA uptake with Tat, direct counts ([9]; 8.75 nM rTat1-86 (without Tat: 2113 ± 237)): 1950 ± 215 DPM | reduction of specific [3H]DA uptake relative to control ([9]; 140 nM rTat1-86): 26.98% | specific [3H]DA uptake with Tat, direct counts ([9]; 140 nM rTat1-86 (without Tat: 1711 ± 261)): 1206 ± 239 DPM | reduction of specific [3H]DA uptake relative to control ([10]; 8.75 nM rTat1-86): 24.2% | specific [3H]DA uptake with Tat, direct counts ([10]; 8.75 nM rTat1-86 (without Tat: 2778 ± 240)): 2106 ± 191 DPM | reduction of specific [3H]DA uptake relative to control ([10]; 140 nM rTat1-86): 34.22% | specific [3H]DA uptake with Tat, direct counts ([10]; 140 nM rTat1-86 (without Tat: 1870 ± 238)): 1230 ± 163 DPM | reduction of specific [3H]DA uptake relative to control ([10]; 140 nM rTat1-86, listed as recombinant Tat1-86): 34% | predicted occupancy of hNET molecules ([11]; 8.75 nM rTat1-86, approximately 2.6-fold the Ki): ~ 72% | predicted occupancy of hNET molecules ([11]; 140 nM rTat1-86, approximately 41.2-fold the Ki): ~ 98% | plateau of Tat's inhibitory effect on DA uptake ([11]; WT hNET, Tat concentrations from 8.75 nM to 140 nM): 65.2% | Ki ([11]; WT hNET, rTat1-86 0.25-140 nM, 20 min, 50 nM [3H]DA, read-out: Ki for inhibiting hNET-mediated DA uptake): 3.4 nM | Tat-induced reduction of [3H]DA uptake compared to its control ([12]; 8.75 nM rTat1-86): attenuated | specific [3H]DA uptake with Tat, direct counts ([12]; 8.75 nM rTat1-86 (without Tat: 1934 ± 210)): 1883 ± 175 DPM | Tat-induced reduction of [3H]DA uptake compared to its control ([12]; 140 nM rTat1-86): attenuated | specific [3H]DA uptake with Tat, direct counts ([12]; 140 nM rTat1-86 (without Tat: 912 ± 212)): 954 ± 213 DPM
